One block for each binder: values may come before it.
Columns and labels:
[1] = target: T1, human PD-L1 (human, UniProt Q9NZQ7 19-290); assay: flow cytometry on human blood cells (conclusion of Example 1)
T1 construct: whole, on cells; Endogenous PD-L1 on cells of human donors and patients; also called programmed death ligand 1

[2] = target: T1, human PD-L1; assay: flow cytometry on stimulated human whole blood, with or without Atezolizumab
Experimental: A Live Dead Kit (Invitrogen) was brought to room temperature. The kit included a near-IR fluorescent reactive dye and DMSO. 1× Pharm Lyse was made by mixing 10 mL of 10× Pharm Lyse (BD Biosciences) in 90 mL distilled water. After surface staining the cells in the test tubes, the tubes were vortexed and 3 mL of 1× Pharm Lyse was added to each test tube. The test tubes were vortexed again to enhance lysis of the cells in the presence of Pharm Lyse. The test tubes were then incubated for 15 minutes at room temperature in the dark. Following incubation, the test tubes were centrifuged for 5 minutes at 300 RCF/1500 to 1600 RPM. After centrifugation, the supernatant was aspirated as much as possible without disturbing the cell pellet. The bottom of each test tube was then flicked to break the cell pellet before washing the cells in 3 mL phosphate-buffered saline (PBS). The test tubes were centrifuged once more for 5 minutes at 300 RCF/1500 to 1600 RPM. The supernatant was then aspirated as before without disturbing the cell pellet. The bottom of each test tube was flicked to break the cell pellet and 1 mL of PBS was added to each test tube. A test tube was selected to perform a cell count using the BioRad TC20 cell counter. If the cell count was above 2 million live cells per mL of PBS in the tube, the concentration was adjusted to be 1 million live cells per mL and diluted accordingly using PBS. […]

T1 sequence (Q9NZQ7 19-290): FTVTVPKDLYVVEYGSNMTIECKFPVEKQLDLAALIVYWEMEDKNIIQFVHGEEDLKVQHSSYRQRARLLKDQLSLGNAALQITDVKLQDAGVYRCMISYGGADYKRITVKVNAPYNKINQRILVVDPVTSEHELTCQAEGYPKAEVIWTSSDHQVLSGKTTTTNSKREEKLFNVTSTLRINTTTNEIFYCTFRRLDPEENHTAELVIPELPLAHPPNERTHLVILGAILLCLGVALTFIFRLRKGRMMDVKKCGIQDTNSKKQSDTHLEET

binding result [1]: binds
B1: anti-PD-L1 14D3 antibody (antibody, V domains shown)
VH: QVQLQQSGPELVNPGASVKISCKASGYAFSTSWMNWVKQRPGKGLEWIGRIYPRDGDTYYNGKFKDKATLTADKSSNTAYMQLSSLTSEDSAVYFCTKNPGGYYFDYWGQGTTLTVSS
VL: DIQMTQTTSSLSASLGDRVTINCRASQDIHTYLNWYQQKPDGTVKLLIFYTSRLHSGVPSRFSGSGSGTDYSLTISNLEQEDIATYFCQQVSSLPPWTFGGGTKVEIK
notes: also called clone 14D3; PD-L1 GNE

binding result [2]: binds
B2: anti-PD-L1 AF647 14D3 (antibody, V domains shown)
VH: B1 VH
VL: B1 VL
notes: also called anti-PD-L1 14D3 antibody labeled with AF647

binding result [2]: binds
B3: anti-PD-L1 PE 14D3 (antibody, V domains shown)
VH: B1 VH
VL: B1 VL
notes: also called anti-PD-L1 14D3 antibody labeled with PE

— patent US20230052312A1 (Genentech, published 2023)
